In the data set the test system is O=C(O)C(=O)CC1(C(=O)O)C=CC(O)C=C1. Description: purified protein. The settings on record: non-aromatizing decarboxylation to endocyclic diene H2HPP. The format is biochemical, Planktothrix agardhii.

Broadly, the Km is the concentration of substrate that gives half-maximal velocity. The term kcat denotes the number of substrate molecules converted per active site and unit of time at saturation.

Consider “AerD (Planktothrix agardhii NIVA-CYA 126/8)”, for which the Km was 170 ± 3 µM and the kcat came out at 4.08 ± 0.017 s⁻¹.

These data come from article PMC2957524.
